Measurements reported in publication doi:10.1101/091884 (bioRxiv, 2016).
One block for each molecule: values may come before it.

Assays:
Test in all cases: SEC + other: SDS-PAGE
[1] = target: B. licheniformis BslA_(40-17g) (Bacillus licheniformis DSM13)
[2] = target: B. pumilus BslA_(37-177) (Bacillus pumilus SAFR-032)
[3] = target: B. amyloliquefaciens BslA_(42-181) (Bacillus amyloliquefaciens FZB42)
SEC + other: SDS-PAGE = target: the molecule itself

stoichiometry N [1]: 2
Molecule: B. licheniformis BslA_(40-17g) (domain or fragment)

stoichiometry N [2]: 2
Molecule: B. pumilus BslA_(37-177) (domain or fragment)

stoichiometry N [3]: 2
Molecule: B. amyloliquefaciens BslA_(42-181) (domain or fragment)

B1: B. subtilis BslA_(42-181) (domain or fragment, Bacillus subtilis, UniProt P71014 42-181, looked up)
chain: MRTQSTASLFATITGASKTEWSFSDIELTYRPNTLLSLGVMEFTLPSGFTANTKDTLNGNALRTTQILNNGKTVRVPLALDLLGAGEFKLKLNNKTLPAAGTYTFRAENKSLSIGNKFYAEASIDVAKRSTPPTQPCGCN
stoichiometry N (SEC + other: SDS-PAGE): 2
